Assay: yeast display, Sf9 membrane polyspecificity reagent, FACS + sequencing; frameworks hold sequencing errors
Outline: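 In a synthetic yeast display library (Saccharomyces cerevisiae BJ5465), nanobody expression was induced with galactose for 36–48 hours. FACS gates were set low and high (top ~1%) using anti-HA fluorescence for expression and streptavidin fluorescence for binding of the Sf9 membrane reagent. Each polyreactivity label is drawn from the gate of origin.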

Row | Sequence | polyreactivity (PSR sort gate)
1 | QVQLVQSGGGLVQAGGSLRLSCAASGLIFYPYAMGWYRQAPGKERELVAAITSGDSTYYADSVKGRFTISRDNAKNTVYLQMNSLKPEDTAVYYCNAYQWGGRYWLVTYDYWGQGTQVTVSS | low polyreactivity
2 | QVQLQESGGGLVQASGSIFHEPNMGWHRQAPGKERELVATISDGAITNYADSVKGRFTISRDNAKNTVYLQMNSLKPEDTAVYYCAVVVHLYTDLRYWGQDTQVTVSS | high polyreactivity
3 | QVQLVESGGGLVQAGGSLRLSCAASGGIFWYYTRVWYRQAPGKERELVATISSGGRTYYADSVKGRFTISRDNAKNTVYLQMNSLKPEHTAVYYCAAVGWYHDYYWGQGTQVTVSS | high polyreactivity
4 | QVQLVESGGGLVQAGGSLRLSCAASGSIFTHNAMGWYRQAPGKVREFVAAISSGGSTNYADSVKGRFTISRDNAKNTVYSQMNSLKPEDTAVYYCAKSIDGWYWRRRRYDYWGQGTQVTVSS | low polyreactivity
5 | QVQLVESGGGLVQAGGSLRLSCAASGSTFSTNAMGWYRQAPGKERDLVAAISRSGGSTYYADTVKRRFTISRDIAKITVYLQMNSLKPEVSAVYYCARYSYRGTNVSYDYWGQGTQVTVSS | high polyreactivity
6 | QVQLLESGAGLVQAGGSLRLSSAASGSIFNLNAMAWYRQAPGKERELVAGIRWSGGRTYYADSVKGRFTISRDNAKNTVYLQMNSLKPVDNEVYYCTAVGYLSWWYDYEYWGQGTQVTVST | high polyreactivity
7 | QDQLVESGGGLVQAGGSLRLSCAASGNIFKCKVMGWYRQAPGKERELVAAISRSGGRTYYADSVKGRFTISRDNAKNTVYLQMNSLKPVDTAVYYCNTKHRTKPTRPVDYWGQGTQVTVSS | high polyreactivity
8 | QVQLEESGGGLVQAGGSLRLSCAASGSIFFSYAMGWYRQAPGKERELVAAISSGGSTYYADSVKGRFTISRDNAKNTVYLQMNSLKPEDTAVYYCAARGYRLVPVDFYYWGQGTQVTVSS | low polyreactivity
9 | QVQLVESGGGLVQAGGSLRLSCAASGSTFGWYAMGWYRQAPGKERELVASISSGGSTNYADSVKGRFTISRDNAKNTVYLQMNSLKPEDTAVYYCAARGGYWWYRYGYWGQGTQVTVSS | high polyreactivity
10 | QVQLVESGGGLVQAGGSLRLSCAASGRTFSSYAMGWYRQAPGKERELVAAIDSGGNTYADSVKGRFTISRDNAKNTVYLQMNSLKPEDTAVYYCAVDGGEFSSYGYWGQGTQVTVSS | low polyreactivity
11 | QVQLVESGGGLVQAGGSLRLSCAASGFIFGNYAMGWYRQAPGKERELVATITRRGGRTYYADSVKGRFTISRDIAKNTVYLQMTSLKPEDTAVYYCNARPSRWAREGYWGQGTQVTVSS | high polyreactivity
12 | QVQLVESGGGLVQAGGSLRLSCAPSGFSIIGNAMGWYRQAPGKERELVAAISRRGGSTYYADSVKGRFTISRDNAKNTVYLQLNSLKPEDTAVYYCATDPGARVHYPTGDYWGQGTQVTVSS | high polyreactivity
13 | QVQLVESGGGLVQAGGSLRLSCAASGPTYWPYAMGWYRQAPGKERELVAAITYSGGGTYYADSVKGRFTISRDNAKNTVYLQMNSLKPEDTAVYYCAKYNYPGRPFDYWGQGTQVTVSS | low polyreactivity
14 | QVQLVESGGGLVQAGGSLRLSCAASGNPFTWYTMGWYRPAPGKERDLVAVSTSDGSKYYADSVKGRFTISRDNAKNTVYLQMNSLKPEDTAVYYCNAGGGTNYGSGYWYGYYYWGQGTQVTVSS | low polyreactivity
15 | QVQLVESGGGLVQAGGSLRLSCAASGSTMAPYAMGWYRQAPGTERELVASINWGGTTTYYADSVKGRFTISRDNAKNTVYLQMNSLKPEDTAVYYCAALGLRWGRSGYYYEYYYWGQGTQVTVSS | high polyreactivity
16 | QVQQQESAGGLVQAGGSLRLSCAASGNIFVDAYMGWYRQAPGKERELVATFAPADSVKGRFTISRDNAKNTVYLQMYSLKPEDTAVYYCAAFTGYSSVFGYWGQGIQVTVSS | high polyreactivity

— the nanobody polyreactivity screen of Harvey et al. (2022)
